# Reference: paper PMC10397247
# T1: 4H963-AA
# T1 chain: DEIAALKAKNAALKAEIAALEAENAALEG
# T2: 4H406-AA
# T2 chain: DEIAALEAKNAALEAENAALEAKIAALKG
# T3: 4H56-AA
# T3 chain: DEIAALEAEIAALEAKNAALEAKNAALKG
# T4: 4H452-AA
# T4 chain: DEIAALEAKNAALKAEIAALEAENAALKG
# T5: 4H_APH
# T5 chain: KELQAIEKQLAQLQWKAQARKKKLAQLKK
# T6: 4H688-AA
# T6 chain: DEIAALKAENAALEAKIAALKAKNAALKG
# T7: 4H_BCR
# T7 chain: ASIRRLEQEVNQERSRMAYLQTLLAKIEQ
# T8: 4H730-bN
# T8 chain: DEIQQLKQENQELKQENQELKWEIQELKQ
# T9: 4H349-bN
# T9 chain: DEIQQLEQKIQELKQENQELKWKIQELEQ
# T10: 4H3297-bN
# T10 chain: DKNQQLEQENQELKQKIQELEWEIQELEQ
# T11: 4H3364-bN
# T11 chain: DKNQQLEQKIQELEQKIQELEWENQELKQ
# T12: 4H949-bN
# T12 chain: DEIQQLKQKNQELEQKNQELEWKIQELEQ
# T13: 4H932-bN
# T13 chain: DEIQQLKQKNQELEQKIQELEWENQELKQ
# T14: 4H56-bN
# T14 chain: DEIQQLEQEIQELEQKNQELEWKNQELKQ
# T15: 4H3381-bN
# T15 chain: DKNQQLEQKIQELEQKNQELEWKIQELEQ
# T16: 4H796-bN
# T16 chain: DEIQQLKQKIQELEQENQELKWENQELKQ
# T17: 4H953-AA
# T17 chain: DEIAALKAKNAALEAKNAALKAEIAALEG
# T18: 4H967-AA
# T18 chain: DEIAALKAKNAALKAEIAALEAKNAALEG
# Experiments:
# 4H963-AA = target: T1, 4H963-AA; assay: two-hybrid library CCmax; conditions: mean of both orientations;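 also: natural log of median RNA to DNA barcode read ratio; higher means stronger binding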
# 4H406-AA = target: T2, 4H406-AA; assay: two-hybrid library CCmax;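 also: natural log of median RNA to DNA barcode read ratio; higher means stronger binding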
# GCN2_T = assay: two-hybrid library CCmax;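 also: natural log of median RNA to DNA barcode read ratio; higher means stronger binding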
# 4H_GCN4 = assay: two-hybrid library CCmax;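 also: natural log of median RNA to DNA barcode read ratio; higher means stronger binding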
# 4H56-AA = target: T3, 4H56-AA; assay: two-hybrid library CCmax; conditions: mean of both orientations;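 also: natural log of median RNA to DNA barcode read ratio; higher means stronger binding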
# 4H452-AA = target: T4, 4H452-AA; assay: two-hybrid library CCmax; conditions: mean of both orientations;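 also: natural log of median RNA to DNA barcode read ratio; higher means stronger binding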
# 4H_APH = target: T5, 4H_APH; assay: two-hybrid library CCmax; conditions: mean of both orientations
# 4H688-AA = target: T6, 4H688-AA; assay: two-hybrid library CCmax; conditions: mean of both orientations
# 4H_BCR = target: T7, 4H_BCR; assay: two-hybrid library CCmax; conditions: mean of both orientations
# 4H730-bN = target: T8, 4H730-bN; assay: two-hybrid library CCNG1
# 4H349-bN = target: T9, 4H349-bN; assay: two-hybrid library CCNG1
# 4H3297-bN = target: T10, 4H3297-bN; assay: two-hybrid library CCNG1
# 4H3364-bN = target: T11, 4H3364-bN; assay: two-hybrid library CCNG1
# 4H949-bN = target: T12, 4H949-bN; assay: two-hybrid library CCNG1
# 4H932-bN = target: T13, 4H932-bN; assay: two-hybrid library CCNG1
# 4H56-bN = target: T14, 4H56-bN; assay: two-hybrid library CCNG1
# 4H3381-bN = target: T15, 4H3381-bN; assay: two-hybrid library CCNG1
# 4H796-bN = target: T16, 4H796-bN; assay: two-hybrid library CCNG1
# 4H953-AA = target: T17, 4H953-AA; assay: two-hybrid library CCmax
# 4H967-AA = target: T18, 4H967-AA; assay: two-hybrid library CCmax; conditions: mean of both orientations
# Chain of 4H_GCN4 (chain, as listed by the source): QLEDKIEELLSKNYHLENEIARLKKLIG
binder,measurement,setting,value
DEIAALEAKNAALEAENAALEAKIAALKG [4H406-AA],interaction score,4H963-AA,-1.6
same,interaction score,4H406-AA,-0.644
same,interaction score,GCN2_T,-1.43
same,interaction score,4H_GCN4,-1.67
same,interaction score,4H56-AA,-1.47
same,interaction score,4H452-AA,-0.548
same,interaction score,4H_APH,-1.29
same,interaction score,4H688-AA,-1.54
same,interaction score,4H_BCR,-2.11
DKNQQLEQENQELKQKIQELEWEIQELEQ [4H3297-bN],interaction score,4H730-bN,-0.799
same,interaction score,4H349-bN,-2.11
same,interaction score,4H3297-bN,-0.0469
same,interaction score,4H3364-bN,-0.913
same,interaction score,4H949-bN,-1.29
same,interaction score,4H932-bN,-1.21
same,interaction score,4H56-bN,-0.798
same,interaction score,4H3381-bN,-1.01
same,interaction score,4H796-bN,-0.556
DEIAALKAKNAALEAKNAALKAEIAALEG [4H953-AA],interaction score,4H953-AA,-1.02
same,interaction score,4H967-AA,-1.73
